Patent US20240101668A1

Tests used:
[1] = target: huFLT3-T227 stably expressed on Ramos cells (human) (UniProt P36888); test: FACS on cells
[2] = target: huFLT3-M227 stably expressed on Ramos cells (human) (UniProt P36888); test: FACS on cells

| Binder | FACS geometric mean fold change over Jurkat parental [1] | FACS geometric mean fold change over Jurkat parental [2] |
| --- | --- | --- |
| Polypeptide No. 250 (scFv, V domains shown) VH: QVQLVQSGAEVKKPGSSVKVSCKASGYTLTSFAMHWVRQAPGQGLEWMGRIIPMSGTANYAQKFQGRVTITADESTSTAYMELSSLRSEDTAVYYCASTSPDQYYYGMDVWGQGTTVTVSS VL: EIVMTQSPATLSVSPGERATLSCRASQSVGSSSLAWYQQKPGQAPRLLIYGASTRATGIPARFSGSGSGTEFTLTISSLQSEDFAVYYCQQYGSSPYTFGQGTKVEIKR | < 2 fold |  |
| Polypeptide No. 281 (scFv, V domains shown) VH: QVQLVQSGAEVKKPGASVKVSCKASGYTFNSYGISWVRQAPGQGLEWMGIINPTGGSTTYAQKFQGRVTMTRDTSTSTVYMELSSLRSEDTAVYYCAKDPFVMDVWGQGTTVTVSS VL: EIVMTQSPATLSVSPGERATLSCRASQSVSSSYLAWYQQKPGQAPRLLIYDASARAAGIPARFSGSGSGTEFTLTISSLQSEDFAVYYCQQYYSTPYTFGQGTKLEIKR | < 2 fold |  |
| Polypeptide No. 268 (scFv, V domains shown) VH: QVQLVQSGAEVKKPGSSVKVSCKASGGTFSTYALSWVRQAPGQGLEWMGGVIPVFGTTDYAHKFQGRVTITADESTSTAYMELSSLRSEDTAVYYCASMIIFGAGGWDAYYFQEWGQGTLVTVSS VL: EIVMTQSPATLSVSPGERATLSCRASQSVNNNQLAWYQQKPGQAPRLLIYDTSSRATGIPARFSGSGSGTEFTLTISSLQSEDFAVYYCQQYDTSPYTFGQGTKVEIKR | < 2 fold |  |
| Polypeptide No. 209 (scFv, V domains shown) VH: EVQLLESGGGLVQPGGSLRLSCAASGFAFSSYVLHWVRQAPGKGLEWVAGIWVDGHNKDYADSVKGRFTISRDNSKNTLYLQMNSLRAEDTAVYYCAREFGAAGSFQHWGQGTLVTVSS VL: DIQMTQSPSSLSASVGDRVTITCRASQSISTWLAWYQQKPGKAPKLLIYDASKLETGVPSRFSGSGSGTDFTLTISSLQPEDFATYYCQQSYTTPYTFGQGTKVEIKR | < 2 fold | < 2 fold |
| Polypeptide No. 226 (scFv, V domains shown) VH: QVQLVQSGAEVKKPGASVKVSCKASGYTFTGYYMHWVRQAPGQGLEWMGIIDPSGGSTSYAQKFQGRVTMTRDTSTSTVYMELSSLRSEDTAVYYCARDRSLLWSGVGGMDVWGQGTTVTVSS VL: DIQMTQSPSSLSASVGDRVTITCRASQGISNYLAWYQQKPGKAPKLLIYGASNLQSGVPSRFSGSGSGTDFTLTISSLQPEDFATYYCQQSYGTPYTFGQGTKLEIKR | < 2 fold |  |
| Polypeptide No. 230 (scFv, V domains shown) VH: QVQLVQSGAEVKKPGSSVKVSCKASGGTFSSNAINWVRQAPGQGLEWMGGIIPLFGTTNYAQKFQGRVTITADESTSTAYMELSSLRSEDTAVYYCARVLSGWYGTYYFDYWGQGTLVTVSS VL: EIVMTQSPATLSVSPGERATLSCRASQSVSADYIAWYQQKPGQAPRLLIYDVSTRASGIPARFSGSGSGTEFTLTISSLQSEDFAVYYCQHYGSSQVTFGQGTKVEIKR | < 2 fold | < 2 fold |
| Polypeptide No. 245 (scFv, V domains shown) VH: QVQLVQSGAEVKKPGSSVKVSCKASGYTFTGFYIHWVRQAPGQGLEWMGGVIPFFSRTIYAQKFQGRVTITADESTSTAYMELSSLRSEDTAVYYCAYGANGHLYGMDAWGQGTTVTVSS VL: EIVMTQSPATLSVSPGERATLSCRASQSVSSSYLAWYQQKPGQAPRLLIYGASTRATGIPARFSGSGSGTEFTLTISSLQSEDFAVYYCQQYSSSPLTFGQGTKVEIKR | < 2 fold |  |
| Polypeptide No. 263 (scFv, V domains shown) VH: QVQLVQSGAEVKKPGSSVKVSCKASGGTFSSYAISWVRQAPGQGLEWMGGIIPIVGVANYAQKLQGRVTITADESTSTAYMELSSLRSEDTAVYYCAKDIGGYPSDAFDIWGQGTTVTVSS VL: EIVMTQSPATLSVSPGERATLSCRASQSVSSSYLAWYQQKPGQAPRLLIYDVSTRATGIPARFSGSGSGTEFTLTISSLQSEDFAVYYCQQYGSSPITFGQGTKVEIKR | < 2 fold |  |
| Polypeptide No. 286 (scFv, V domains shown) VH: QVQLVQSGAEVKKPGASVKVSCKASGYTFTSYGISWVRQAPGQGLEWMGWISPNSGVTNYAQKFQGRVTMTRDTSTSTVYMELSSLRSEDTAVYYCVSDDYGAFDYWGQGTLVTVSS VL: EIVMTQSPATLSVSPGERATLSCRASQSVSSSYLAWYQQKPGQAPRLLIYDVSTRASGIPARFSGSGSGTEFTLTISSLQSEDFAVYYCQQYNNWPYTFGQGTKLEIKR | < 2 fold |  |
| Polypeptide No. 236 (scFv, V domains shown) VH: QVQLVQSGAEVKKPGSSVKVSCKASGGTFSSYAISWVRQAPGQGLEWMGGIIPILGIANYAQKFQGRVTITADESTSTAYMELSSLRSEDTAVYYCAHVDGYGMDVWGQGTTVTVSS VL: EIVMTQSPATLSVSPGERATLSCRASQSVSSNLAWYQQKPGQAPRLLIYDVSSRATGIPARFSGSGSGTEFTLTISSLQSEDFAVYYCQQLDAYPLTFGGGTKVEIKR | < 2 fold | < 2 fold |
| Polypeptide No. 282 (scFv, V domains shown) VH: QVQLVQSGAEVKKPGASVKVSCKASGGTFSSYAISWVRQAPGQGLEWMGWMNPNSGDTGYAQKFQGRVTMTRDTSTSTVYMELSSLRSEDTAVYYCARDFEGGGWFDPWGQGTLVTVSS VL: EIVMTQSPATLSVSPGERATLSCRASRSISDYLAWYQQKPGQAPRLLIYDASSRATGIPARFSGSGSGTEFTLTISSLQSEDFAVYYCQQYYTTPLTFGQGTKVEIKR | < 2 fold |  |
| Polypeptide No. 276 (scFv, V domains shown) VH: QVQLVQSGAEVKKPGSSVKVSCKASGYTFTRFNIHWVRQAPGQGLEWMGWLNPFTGNTGYARKFQGRVTITADESTSTAYMELSSLRSEDTAVYYCASSSSWYGWFDPWGQGTLVTVSS VL: EIVMTQSPATLSVSPGERATLSCRASQSVSSYLAWYQQKPGQAPRLLIYDTSTRATGIPARFSGSGSGTEFTLTISSLQSEDFAVYYCQQYHSSPWTFGQGTKVEIKR | < 2 fold |  |
| Polypeptide No. 224 (scFv, V domains shown) VH: QVQLVQSGAEVKKPGSSVKVSCKASGYTFTGYYMHWVRQAPGQGLEWMGVINPIYGTANYALKFQGRVTITADESTSTAYMELSSLRSEDTAVYYCAKAISSGWSNDAFDIWGQGTMVTVSS VL: EIVMTQSPATLSVSPGERATLSCRASQSVSSDFLAWYQQKPGQAPRLLIYDTSSRASGIPARFSGSGSGTEFTLTISSLQSEDFAVYYCQQYAGPPTFGQGTRLEIKR | < 2 fold |  |
| Polypeptide No. 211 (scFv, V domains shown) VH: EVQLLESGGGLVQPGGSLRLSCAASGFTFSNHYMSWVRQAPGKGLEWVSAIGAGGGTYYADSVKGRFTISRDNSKNTLYLQMNSLRAEDTAVYYCAKSSGYSYGRRPFDYWGQGTLVTVSS VL: DIQMTQSPSSLSASVGDRVTITCRASQGISNNLAWYQQKPGKAPKLLIYAASTLHNGVPSRFSGSGSGTDFTLTISSLQPEDFATYYCQQYGRSPKTFGQGTKVEIKR | < 2 fold | < 2 fold |
| Polypeptide No. 220 (scFv, V domains shown) VH: QVQLVQSGAEVKKPGASVKVSCKASGYTFTGYYMYWVRQAPGQGLEWMGIINPRGGITSYAQRFQGRVTMTRDTSTSTVYMELSSLRSEDTAVYYCARGSTSSGWPNGDMDVWGKGTTVTVSS VL: DIQMTQSPSSLSASVGDRVTITCRASQGIRNDLGWYQQKPGKAPKLLIYAASSLQSGVPSRFSGSGSGTDFTLTISSLQPEDFATYYCQQANRFPPTFGQGTKVEIKR |  | < 2 fold |
| Polypeptide No. 201 (scFv, V domains shown) VH: QVQLVQSGAEVKKPGASVKVSCKASGGTFSSDGISWVRQAPGQGLEWMGWISAYHGHTNYAQKFQGRVTMTRDTSTSTVYMELSSLRSEDTAVYYCARGGKHSGSHRSYYYGMDVWGQGTTVTVSS VL: DIQMTQSPSSLSASVGDRVTITCRASHNIGNKLAWYQQKPGKAPKLLIYGATTLQSGVPSRFSGSGSGTDFTLTISSLQPEDFATYYCQQANSFPRTFGPGTKVDIKR | < 2 fold | < 2 fold |
| Polypeptide No. 227 (scFv, V domains shown) VH: QVQLVQSGAEVKKPGSSVKVSCKASGYTLNELFMHWVRQAPGQGLEWVGGIIPMSGTTFYAQTFQGRVTITADESTSTAYMELSSLRSEDTAVYYCAKGVRQYSYGRYYYGMDVWGQGTLVTVSS VL: DIQMTQSPSSLSASVGDRVTITCRASQSVSSYLNWYQQKPGKAPKLLIYGASNLQSGVPSRFSGSGSGTDFTLTISSLQPEDFATYYCQQSYTTPWTFGQGTRLEIKR | < 2 fold | < 2 fold |
| Polypeptide No. 232 (scFv, V domains shown) VH: QVQLVQSGAEVKKPGASVKVSCKASGYTFTSYGIHWVRQAPGQGLEWMGGIIPIFGTASYAQKFQGRVTMTRDTSTSTVYMELSSLRSEDTAVYYCTRSNGIAAAGTHWYFDLWGRGTLVTVSS VL: DIQMTQSPSSLSASVGDRVTITCRASQNIANSLNWYQQKPGKAPKLLIYAASSLQSGVPSRFSGSGSGTDFTLTISSLQPEDFATYYCQQYSSYPPTFGPGTKVDIKR | < 2 fold | < 2 fold |
| Polypeptide No. 205 (scFv, V domains shown) VH: QVQLVQSGAEVKKPGSSVKVSCKASGGSFISHTFSWVRQAPGQGLEWMGGIIPISGTANYAQKFQGRVTITADESTSTAYMELSSLRSEDTAVYYCAKGRGQLVGGYFQHWGQGTLVTVSS VL: DIVMTQSPLSLPVTPGEPASISCRSSQSLLHSNGYNYLDWYLQKPGQSPQLLIYAASSLQSGVPDRFSGSGSGTDFTLKISRVEAEDVGVYYCMQALQTPLTFGQGTRLEIKR | < 2 fold | < 2 fold |
| Polypeptide No. 225 (scFv, V domains shown) VH: QVQLVQSGAEVKKPGSSVKVSCKASGYTLTELSIHWVRQAPGQGLEWMGGIVPMSGTASYAQKFQGRVTITADESTSTAYMELSSLRSEDTAVYYCARRRDGYNSWGQGTLVTVSS VL: DIVMTQSPDSLAVSLGERATINCKSSQSLLYGSKNYISWYQQKPGQPPKLLIYSSSTRESGVPDRFSGSGSGTDFTLTISSLQAEDVAVYYCQQYYTTPYTFGQGTKVEIKR | < 2 fold |  |
